This is an account of results in the supplement of paper PMC10567573.

B1: ADD1 (parent)
chain: FASDGDSGTCSPLRHSFQKQQREK
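Note: lentivirally expressed fusions sorted by FACS into six bins by GFP to DsRed ratio, PSI derived from sequencing read proportions per bin multiplied by bin number.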

The series covers variants of B1. In words: protein stability index of a GFP-peptide fusion (GPS, HEK-293T) (PSI 1-6); higher = more stable. The note with it: c terminus: a fixed tail appended.
As to FASDGDSGTQSPLRHSFQKQQREK [C10Q], the protein stability index was 4.13.
The value for FASDGDSGTASPLRHSFQKQQREK [C10A] was 4.67.
For FASDGDSGTGSPLRHSFQKQQREK [C10G], the protein stability index came out at 4.49.
With FASDGDSGTESPLRHSFQKQQREK [C10E], the protein stability index was determined as 4.66.
With FASDGDSGTSSPLRHSFQKQQREK [C10S], the protein stability index worked out at 4.78.
With FASDGDSGTLSPLRHSFQKQQREK [C10L] the figure was 3.85; with FASDGDSGTDSPLRHSFQKQQREK [C10D], 4.68.
The value for FASDGDSGTKSPLRHSFQKQQREK [C10K] was 4.17.
On to FASDGDSGTFSPLRHSFQKQQREK [C10F], for which the protein stability index was 1.87.
Regarding FASDGDSGTRSPLRHSFQKQQREK [C10R], the protein stability index is 4.07.
The value for FASDGDSGTPSPLRHSFQKQQREK [C10P] was 3.65; that for FASDGDSGTNSPLRHSFQKQQREK [C10N] was 5.17.
The value for FASDGDSGTMSPLRHSFQKQQREK [C10M] was 3.75; that for FASDGDSGTHSPLRHSFQKQQREK [C10H] was 4.01; that for FASDGDSGTISPLRHSFQKQQREK [C10I] was 4.24.
Regarding FASDGYSGTCSPLRHSFQKQQREK [D6Y], the protein stability index stood at 1.7.
With FASDGQSGTCSPLRHSFQKQQREK [D6Q], the protein stability index was determined as 3.17.
With FASDGMSGTCSPLRHSFQKQQREK [D6M] the figure was 2.27; with FASDGLSGTCSPLRHSFQKQQREK [D6L], 2.6.
In the case of FASDGRSGTCSPLRHSFQKQQREK [D6R], the protein stability index stood at 3.44.
As for FASDGSSGTCSPLRHSFQKQQREK [D6S], the protein stability index turned out to be 3.12.
The value for FASDGKSGTCSPLRHSFQKQQREK [D6K] was 2.8.
The value for FASDGVSGTCSPLRHSFQKQQREK [D6V] was 3.13; that for FASDGPSGTCSPLRHSFQKQQREK [D6P] was 3.34.
Take FASDGFSGTCSPLRHSFQKQQREK [D6F]: the protein stability index is 1.97.
With FASDGWSGTCSPLRHSFQKQQREK [D6W] the figure was 3.8; with FASDGISGTCSPLRHSFQKQQREK [D6I], 1.92; with FASDGHSGTCSPLRHSFQKQQREK [D6H], 2.29.
The value for FASDGGSGTCSPLRHSFQKQQREK [D6G] was 3.31; that for FASDGNSGTCSPLRHSFQKQQREK [D6N] was 3.18.
With FASDGTSGTCSPLRHSFQKQQREK [D6T] the figure was 2.9.
In the case of FASDGASGTCSPLRHSFQKQQREK [D6A], the protein stability index was found to be 2.41.
For the variant FASDGESGTCSPLRHSFQKQQREK [D6E], the protein stability index was 3.98.
With FASDGCSGTCSPLRHSFQKQQREK [D6C] the figure was 3.01; with FASDYDSGTCSPLRHSFQKQQREK [G5Y], 3.42.
With FASDWDSGTCSPLRHSFQKQQREK [G5W] the figure was 1.56.
The value for FASDVDSGTCSPLRHSFQKQQREK [G5V] was 3.94; that for FASDTDSGTCSPLRHSFQKQQREK [G5T] was 4.37; that for FASDSDSGTCSPLRHSFQKQQREK [G5S] was 4.17.
Regarding FASDRDSGTCSPLRHSFQKQQREK [G5R], the protein stability index turned out to be 3.35.
With FASDGDSQTCSPLRHSFQKQQREK [G8Q] the figure was 3.7.
With FASDGDSRTCSPLRHSFQKQQREK [G8R], the protein stability index was determined as 3.98.
FASDGDSKTCSPLRHSFQKQQREK [G8K]: the protein stability index turned out to be 3.57.
The value for FASDGDSLTCSPLRHSFQKQQREK [G8L] was 3.2; that for FASDGDSHTCSPLRHSFQKQQREK [G8H] was 3.86.
The value for FASDGDSATCSPLRHSFQKQQREK [G8A] was 2.82; that for FASDGDSETCSPLRHSFQKQQREK [G8E] was 3.92.
With FASDGDSTTCSPLRHSFQKQQREK [G8T] the figure was 3.75; with FASDGDSCTCSPLRHSFQKQQREK [G8C], 3.1.
In the case of FASDGDSDTCSPLRHSFQKQQREK [G8D], the protein stability index amounted to 4.29.
Consider FASDGDSPTCSPLRHSFQKQQREK [G8P], for which the protein stability index worked out at 4.47.
Take FASDGDSFTCSPLRHSFQKQQREK [G8F]: the protein stability index turned out to be 1.44.
With FASDGDSSTCSPLRHSFQKQQREK [G8S] the figure was 3.58; with FASDGDSVTCSPLRHSFQKQQREK [G8V], 3.81.
The value for FASDGDSNTCSPLRHSFQKQQREK [G8N] was 3.5; that for FASDGDSITCSPLRHSFQKQQREK [G8I] was 3.15.
The value for FASDGDSMTCSPLRHSFQKQQREK [G8M] was 2.96; that for FASDGDSYTCSPLRHSFQKQQREK [G8Y] was 2.5; that for FASDGDSGPCSPLRHSFQKQQREK [T9P] was 4.35.
Regarding FASDGDSGVCSPLRHSFQKQQREK [T9V], the protein stability index was found to be 3.31.
The value for FASDGDSGQCSPLRHSFQKQQREK [T9Q] was 4.04; that for FASDGDSGHCSPLRHSFQKQQREK [T9H] was 3.45; that for FASDGDSGACSPLRHSFQKQQREK [T9A] was 4.16.
The value for FASDGDSGDCSPLRHSFQKQQREK [T9D] was 4.36.
With FASDGDSGMCSPLRHSFQKQQREK [T9M] the figure was 2.4; with FASDGDSGLCSPLRHSFQKQQREK [T9L], 3.58; with FASDGDSGWCSPLRHSFQKQQREK [T9W], 3.71.
For the variant FASDGDSGRCSPLRHSFQKQQREK [T9R], the protein stability index came to 3.33.
Take FASDGDSGECSPLRHSFQKQQREK [T9E]: the protein stability index was determined as 4.79.
Turning to FASDGDSGFCSPLRHSFQKQQREK [T9F], the protein stability index came out at 1.64.
With FASDGDSGSCSPLRHSFQKQQREK [T9S] the figure was 3.82; with FASDGDSGNCSPLRHSFQKQQREK [T9N], 4.13; with FASDGDSGICSPLRHSFQKQQREK [T9I], 2.49.
The value for FASDGDSGCCSPLRHSFQKQQREK [T9C] was 3.52; that for FASDGDSGYCSPLRHSFQKQQREK [T9Y] was 2.16; that for FASDGDEGTCSPLRHSFQKQQREK [S7E] was 4.26.
The value for FASDGDPGTCSPLRHSFQKQQREK [S7P] was 3.85; that for FASDGDWGTCSPLRHSFQKQQREK [S7W] was 2.06; that for FASDGDQGTCSPLRHSFQKQQREK [S7Q] was 3.76.
As to FASDGDIGTCSPLRHSFQKQQREK [S7I], the protein stability index stood at 1.49.
With FASDGDCGTCSPLRHSFQKQQREK [S7C] the figure was 2.96; with FASDGDLGTCSPLRHSFQKQQREK [S7L], 2.11.
With FASDGDRGTCSPLRHSFQKQQREK [S7R] the figure was 4.01.
With FASDGDFGTCSPLRHSFQKQQREK [S7F] the figure was 2.72.
Regarding FASDGDHGTCSPLRHSFQKQQREK [S7H], the protein stability index worked out at 3.42.
For FASDGDYGTCSPLRHSFQKQQREK [S7Y], the protein stability index amounted to 3.04.
For FASDGDKGTCSPLRHSFQKQQREK [S7K], the protein stability index was determined as 3.69.
In the case of FASDGDDGTCSPLRHSFQKQQREK [S7D], the protein stability index worked out at 4.18.
The value for FASDGDAGTCSPLRHSFQKQQREK [S7A] was 3.82; that for FASDGDVGTCSPLRHSFQKQQREK [S7V] was 1.49.
As for FASDGDGGTCSPLRHSFQKQQREK [S7G], the protein stability index amounted to 3.46.
As to FASDGDTGTCSPLRHSFQKQQREK [S7T], the protein stability index was 3.19.
FASDGDNGTCSPLRHSFQKQQREK [S7N]: the protein stability index was 4.14.
On to FASDGDMGTCSPLRHSFQKQQREK [S7M], for which the protein stability index amounted to 3.14.
